Results as given in patent publication US20250262210A1 (TRUSTEES OF COLUMBIA UNIVERSITY IN THE CITY OF NEW YORK, published 2025).

T1: LZTR1-FLAG (human, UniProt Q8N653 1-840)
T1 construct: Expressed in HEK 293T, HeLa or U87 cells; used as cell lysate; also called LZTR1 wild type-FLAG; LZTR1 WT; not shown: FLAG tag at the C-terminus
T1 sequence (looked up): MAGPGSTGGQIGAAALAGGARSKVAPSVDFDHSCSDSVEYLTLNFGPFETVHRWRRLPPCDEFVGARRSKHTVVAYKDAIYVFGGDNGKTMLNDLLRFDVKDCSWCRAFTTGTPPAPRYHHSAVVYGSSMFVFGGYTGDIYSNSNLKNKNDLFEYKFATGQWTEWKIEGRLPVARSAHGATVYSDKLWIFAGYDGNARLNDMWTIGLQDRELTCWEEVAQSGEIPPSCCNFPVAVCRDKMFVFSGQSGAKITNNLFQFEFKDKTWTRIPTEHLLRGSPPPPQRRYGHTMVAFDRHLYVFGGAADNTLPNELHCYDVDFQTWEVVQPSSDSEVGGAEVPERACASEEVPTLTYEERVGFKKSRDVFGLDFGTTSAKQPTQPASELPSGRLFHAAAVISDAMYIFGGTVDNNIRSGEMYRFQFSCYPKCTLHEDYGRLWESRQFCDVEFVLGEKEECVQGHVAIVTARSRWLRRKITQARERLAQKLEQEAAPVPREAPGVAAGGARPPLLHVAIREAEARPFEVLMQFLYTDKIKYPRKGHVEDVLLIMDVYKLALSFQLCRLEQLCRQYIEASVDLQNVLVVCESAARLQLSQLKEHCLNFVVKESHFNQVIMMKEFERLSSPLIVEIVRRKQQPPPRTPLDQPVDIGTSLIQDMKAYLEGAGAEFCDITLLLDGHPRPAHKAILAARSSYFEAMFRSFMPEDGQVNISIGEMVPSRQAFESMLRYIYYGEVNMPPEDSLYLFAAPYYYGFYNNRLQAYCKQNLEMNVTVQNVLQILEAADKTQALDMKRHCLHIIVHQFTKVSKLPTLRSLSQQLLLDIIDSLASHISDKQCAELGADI

T2: LZTR1 R810W-FLAG (human, UniProt Q8N653 1-840)
T2 construct: Stably expressed in U87 cells by lentivirus; also called LZTR1-FLAG-R810W; LZTR1 RW; not shown: FLAG tag
T2 sequence (looked up): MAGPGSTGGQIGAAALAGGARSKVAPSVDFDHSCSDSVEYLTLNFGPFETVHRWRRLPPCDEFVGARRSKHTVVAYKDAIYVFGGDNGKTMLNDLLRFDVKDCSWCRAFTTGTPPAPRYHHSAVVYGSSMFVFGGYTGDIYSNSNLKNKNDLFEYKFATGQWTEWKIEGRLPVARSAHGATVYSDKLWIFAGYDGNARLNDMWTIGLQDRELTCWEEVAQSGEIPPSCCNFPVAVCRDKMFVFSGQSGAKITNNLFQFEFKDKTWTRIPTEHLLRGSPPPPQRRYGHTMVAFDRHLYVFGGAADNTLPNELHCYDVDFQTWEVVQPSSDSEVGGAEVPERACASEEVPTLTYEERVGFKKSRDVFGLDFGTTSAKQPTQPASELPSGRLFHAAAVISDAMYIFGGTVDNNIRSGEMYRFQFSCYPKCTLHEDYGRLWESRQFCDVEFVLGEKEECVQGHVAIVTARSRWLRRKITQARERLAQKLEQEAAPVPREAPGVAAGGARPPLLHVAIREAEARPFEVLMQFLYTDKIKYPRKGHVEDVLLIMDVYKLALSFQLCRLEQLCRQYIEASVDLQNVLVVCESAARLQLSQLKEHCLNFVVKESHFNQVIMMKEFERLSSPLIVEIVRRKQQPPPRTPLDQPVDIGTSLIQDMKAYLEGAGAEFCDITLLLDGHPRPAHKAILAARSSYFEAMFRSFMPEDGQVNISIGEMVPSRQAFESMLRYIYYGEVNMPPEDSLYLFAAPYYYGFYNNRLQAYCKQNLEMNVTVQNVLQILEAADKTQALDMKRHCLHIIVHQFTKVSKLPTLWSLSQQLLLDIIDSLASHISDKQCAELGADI


Tests used:
LZTR1-FLAG = target: T1, LZTR1-FLAG; assay: IP/MS, LZTR1 wild type-FLAG, U87
Experimental: (§1) Lysates were immunoprecipitated with FLAG affinity matrix and eluted with FLAG peptide. […] Protein gel slices were excised and in-gel digestion performed as previously described (83), with minor modifications. Gel slices were washed with 1:1 A cetonitrile and 100 mM ammonium bicarbonate for 30 min then dehydrated with 100% acetonitrile for 10 min until shrunk. The excess acetonitrile was then removed and the slices dried in speed-vacuum at room temperature for 10 min. Gel slices were reduced with 5 mM DTT for 30 min at 56° C. in an air thermostat, cooled down to room temperature, and alkylated with 11 mM IAA for 30 min with no light. Gel slices were then washed with 100 mM of ammonium bicarbonate and 100% acetonitrile for 10 min each. Excess acetonitrile was removed and dried in a speed-vacuum for 10 min at room temperature and the gel slices were re-hydrated in a solution of 25 ng/μl trypsin in 50 mM ammonium bicarbonate for 30 min on ice and digested overnight at 37° C. in an air thermostat. Digested peptides were collected and further extracted from gel slices in extraction buffer (1:2 ratio by volume of 5% formic acid:acetonitrile) at high speed, shaking in an air thermostat. The supernatants from both extractions were combined and dried in a speed-vacuum. Peptides were dissolved in 3% acetonitrile/0.1% formic acid. Desalted peptides were injected in an EASY-Spray™ PepMap™ RSLC C18 50 cm×[…] column (Thermo Scientific) connected to an Orbitrap Fusion™ Tribrid™ (Thermo Scientific) as described in “Global ubiquitylation enrichment” section. The following modifications were used for protein identification and quantification: oxidation of methionine (M), acetylation of the protein N-terminus, and deamination for asparagine or glutamine (NQ). Results obtained from MaxQuant were assembled in Scaffold for data visualization.

LZTR1 R810W-FLAG = target: T2, LZTR1 R810W-FLAG; assay: IP/MS, LZTR1 R810W-FLAG, U87
Experimental: as §1

Binder | binding result (LZTR1-FLAG) | binding result (LZTR1 R810W-FLAG)
ARAF (other, human, UniProt P10398 1-606, looked up) MEPPRGPPANGAEPSRAVGTVKVYLPNKQRTVVTVRDGMSVYDSLDKALKVRGLNQDCCVVYRLIKGRKTVTAWDTAIAPLDGEELIVEVLEDVPLTMHNFVRKTFFSLAFCDFCLKFLFHGFRCQTCGYKFHQHCSSKVPTVCVDMSTNRQQFYHSVQDLSGGSRQHEAPSNRPLNELLTPQGPSPRTQHCDPEHFPFPAPANAPLQRIRSTSTPNVHMVSTTAPMDSNLIQLTGQSFSTDAAGSRGGSDGTPRGSPSPASVSSGRKSPHSKSPAEQRERKSLADDKKKVKNLGYRDSGYYWEVPPSEVQLLKRIGTGSFGTVFRGRWHGDVAVKVLKVSQPTAEQAQAFKNEMQVLRKTRHVNILLFMGFMTRPGFAIITQWCEGSSLYHHLHVADTRFDMVQLIDVARQTAQGMDYLHAKNIIHRDLKSNNIFLHEGLTVKIGDFGLATVKTRWSGAQPLEQPSGSVLWMAAEVIRMQDPNPYSFQSDVYAYGVVLYELMTGSLPYSHIGCRDQIIFMVGRGYLSPDLSKISSNCPKAMRRLLSDCLKFQREERPLFPQILATIELLQRSLPKIERSASEPSLHRTQADELPACLLSAARLVP | – | binds
AMOTL2 (other, human, UniProt Q9Y2J4 1-779, looked up) MRTLEDSSGTVLHRLIQEQLRYGNLTETRTLLAIQQQALRGGAGTGGTGSPQASLEILAPEDSQVLQQATRQEPQGQEHQGGENHLAENTLYRLCPQPSKGEELPTYEEAKAHSQYYAAQQAGTRPHAGDRDPRGAPGGSRRQDEALRELRHGHVRSLSERLLQLSLERNGARAPSHMSSSHSFPQLARNQQGPPLRGPPAEGPESRGPPPQYPHVVLAHETTTAVTDPRYRARGSPHFQHAEVRILQAQVPPVFLQQQQQYQYLQQSQEHPPPPHPAALGHGPLSSLSPPAVEGPVSAQASSATSGSAHLAQMEAVLRENARLQRDNERLQRELESSAEKAGRIEKLESEIQRLSEAHESLTRASSKREALEKTMRNKMDSEMRRLQDFNRDLRERLESANRRLASKTQEAQAGSQDMVAKLLAQSYEQQQEQEKLEREMALLRGAIEDQRRRAELLEQALGNAQGRAARAEEELRKKQAYVEKVERLQQALGQLQAACEKREQLELRLRTRLEQELKALRAQQRQAGAPGGSSGSGGSPELSALRLSEQLREKEEQILALEADMTKWEQKYLEERAMRQFAMDAAATAAAQRDTTLIRHSPQPSPSSSFNEGLLTGGHRHQEMESRLKVLHAQILEKDAVIKVLQQRSRRDPGKAIQGSLRPAKSVPSVFAAAAAGTQGWQGLSSSERQTADAPARLTTDRAPTEEPVVTAPPAAHAKHGSRDGSTQTEGPPDSTSTCLPPEPDSLLGCSSSQRAASLDSVATSRVQDLSDMVEILI | binds | binds

Continued, values first:

binding result (LZTR1-FLAG) | binding result (LZTR1 R810W-FLAG) | Binder
binds | binds | ADAM 15 (other, human, UniProt Q13444 207-863, looked up, Printed as ADAM 15; read as ADAM15) DVVTETKTVELVIVADHSEAQKYRDFQHLLNRTLEVALLLDTFFRPLNVRVALVGLEAWTQRDLVEISPNPAVTLENFLHWRRAHLLPRLPHDSAQLVTGTSFSGPTVGMAIQNSICSPDFSGGVNMDHSTSILGVASSIAHELGHSLGLDHDLPGNSCPCPGPAPAKTCIMEASTDFLPGLNFSNCSRRALEKALLDGMGSCLFERLPSLPPMAAFCGNMFVEPGEQCDCGFLDDCVDPCCDSLTCQLRPGAQCASDGPCCQNCQLRPSGWQCRPTRGDCDLPEFCPGDSSQCPPDVSLGDGEPCAGGQAVCMHGRCASYAQQCQSLWGPGAQPAAPLCLQTANTRGNAFGSCGRNPSGSYVSCTPRDAICGQLQCQTGRTQPLLGSIRDLLWETIDVNGTELNCSWVHLDLGSDVAQPLLTLPGTACGPGLVCIDHRCQRVDLLGAQECRSKCHGHGVCDSNRHCYCEEGWAPPDCTTQLKATSSLTTGLLLSLLVLLVLVMLGASYWYRARLHQRLCQLKGPTCQYRAAQSGPSERPGPPQRALLARGTKQASALSFPAPPSRPLPPDPVSKRLQAELADRPNPPTRPLPADPVVRSPKSQGPAKPPPPRKPLPADPQGRCPSGDLPGPGAGIPPLVVPSRPAPPPPTVSSLYL
binds | binds | AHR (other, human, UniProt P35869 11-848, looked up) ASRKRRKPVQKTVKPIPAEGIKSNPSKRHRDRLNTELDRLASLLPFPQDVINKLDKLSVLRLSVSYLRAKSFFDVALKSSPTERNGGQDNCRAANFREGLNLQEGEFLLQALNGFVLVVTTDALVFYASSTIQDYLGFQQSDVIHQSVYELIHTEDRAEFQRQLHWALNPSQCTESGQGIEEATGLPQTVVCYNPDQIPPENSPLMERCFICRLRCLLDNSSGFLAMNFQGKLKYLHGQKKKGKDGSILPPQLALFAIATPLQPPSILEIRTKNFIFRTKHKLDFTPIGCDAKGRIVLGYTEAELCTRGSGYQFIHAADMLYCAESHIRMIKTGESGMIVFRLLTKNNRWTWVQSNARLLYKNGRPDYIIVTQRPLTDEEGTEHLRKRNTKLPFMFTTGEAVLYEATNPFPAIMDPLPLRTKNGTSGKDSATTSTLSKDSLNPSSLLAAMMQQDESIYLYPASSTSSTAPFENNFFNESMNECRNWQDNTAPMGNDTILKHEQIDQPQDVNSFAGGHPGLFQDSKNSDLYSIMKNLGIDFEDIRHMQNEKFFRNDFSGEVDFRDIDLTDEILTYVQDSLSKSPFIPSDYQQQQSLALNSSCMVQEHLHLEQQQQHHQKQVVVEPQQQLCQKMKHMQVNGMFENWNSNQFVPFNCPQQDPQQYNVFTDLHGISQEFPYKSEMDSMPYTQNFISCNQPVLPQHSKCTELDYPMGSFEPSPYPTTSSLEDFVTCLQLPENQKHGLNPQSAIITPQTCYAGAVSMYQCQPEPQHTHVGQMQYNPVLPGQQAFLNKFQNGVLNETYPAELNNINNTQTTTHLQPLHHPSEARPFPDLTSSGFL
binds | binds | APEH (other, human, UniProt P13798 1-732, looked up) MERQVLLSEPEEAAALYRGLSRQPALSAACLGPEVTTQYGGQYRTVHTEWTQRDLERMENIRFCRQYLVFHDGDSVVFAGPAGNSVETRGELLSRESPSGTMKAVLRKAGGTGPGEEKQFLEVWEKNRKLKSFNLSALEKHGPVYEDDCFGCLSWSHSETHLLYVAEKKRPKAESFFQTKALDVSASDDEIARLKKPDQAIKGDQFVFYEDWGENMVSKSIPVLCVLDVESGNISVLEGVPENVSPGQAFWAPGDAGVVFVGWWHEPFRLGIRFCTNRRSALYYVDLIGGKCELLSDDSLAVSSPRLSPDQCRIVYLQYPSLIPHHQCSQLCLYDWYTKVTSVVVDVVPRQLGENFSGIYCSLLPLGCWSADSQRVVFDSAQRSRQDLFAVDTQVGTVTSLTAGGSGGSWKLLTIDQDLMVAQFSTPSLPPTLKVGFLPSAGKEQSVLWVSLEEAEPIPDIHWGIRVLQPPPEQENVQYAGLDFEAILLQPGSPPDKTQVPMVVMPHGGPHSSFVTAWMLFPAMLCKMGFAVLLVNYRGSTGFGQDSILSLPGNVGHQDVKDVQFAVEQVLQEEHFDASHVALMGGSHGGFISCHLIGQYPETYRACVARNPVINIASMLGSTDIPDWCVVEAGFPFSSDCLPDLSVWAEMLDKSPIRYIPQVKTPLLLMLGQEDRRVPFKQGMEYYRALKTRNVPVRLLLYPKSTHALSEVEVESDSFMNAVLWLRTHLGS
